T1: human ANGPTL3 17-220 (human)
T1 chain: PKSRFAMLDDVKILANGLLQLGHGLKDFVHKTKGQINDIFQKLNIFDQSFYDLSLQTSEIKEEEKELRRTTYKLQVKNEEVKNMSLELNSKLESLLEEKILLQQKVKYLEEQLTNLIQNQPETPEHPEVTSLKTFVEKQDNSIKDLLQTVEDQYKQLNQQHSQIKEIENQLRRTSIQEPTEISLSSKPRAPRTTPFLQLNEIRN


What was measured:
human ANGPTL3 17-220 [1] = target: T1, human ANGPTL3 17-220; assay: SPR, pH 7.4, 37C
human ANGPTL3 17-220 [2] = target: T1, human ANGPTL3 17-220; assay: SPR, pH 6.0, 37C
human ANGPTL3 17-220 [3] = target: T1, human ANGPTL3 17-220; assay: SPR, pH 6.0, 37C

Row | Binder | Kd (human ANGPTL3 17-220 [1]) [nM] | binding result (human ANGPTL3 17-220 [2]) | Kd (human ANGPTL3 17-220 [3]) [nM]
1 | tmAb2 (antibody, V domains shown) VH: EVQLLESGGGLVQPGGSLRLSCAASDFNFRSYWMTWVRQAPGKGLEWVSSISSHSTYIYYADSVKGRFTISRDNSKNTLYLQMNSLRAEDTATYYCAREGWYDNWFDPWGQGTLVTVSS VL: EIVLTQSPGTLSLSPGERATLSCRASQNIRSPYLAWYQQKPGQAPRLLIYGVSSRAAGIPDRFSGSGSGTDFTLTISRLEPEDFAVYYCQQYDDHPYTFGQGTKLEIK | 43 | no binding | 
2 | tmAb4 (antibody, V domains shown) VH: EVQLLESGGGLVQPGGSLRLSCAASGFNFESYWMTWVRQAPGKGLEWVSSISSHSTYIYYADSVKGRFTISRDNSKNTLYLQMNSLRAEDTATYYCAREGWYDNWNDPWGQGTLVTVSS VL: EIVLTQSPGTLSLSPGERATLSCRASQNIRSPYLAWYQQKPGQAPRLLIYGVSSRAAGIPDRFSGSGSGTDFTLTISRLEPEDFAVYYCQQYDDHPYTFGQGTKLEIK | 56 | no binding | 

Now those with a lower Kd (human ANGPTL3 17-220 [1]), led by results:

Row | Kd (human ANGPTL3 17-220 [1]) [nM] | binding result (human ANGPTL3 17-220 [2]) | Kd (human ANGPTL3 17-220 [3]) [nM] | Binder
3 | 18 |  | 3000 | tmAb3 (antibody, V domains shown) VH: EVQLLESGGGLVQPGGSLRLSCAASGFNFESYWMTWVRQAPGKGLEWVSSISSHSTYIYYADSVKGRFTISRDNSKNTLYLQMNSLRAEDTATYYCAREGWYDNWFDPWGQGTLVTVSS VL: EIVLTQSPGTLSLSPGERATLSCRASQNIRSPYLAWYQQKPGQAPRLLIYGVSSRAAGIPDRFSGSGSGTDFTLTISRLEPEDFAVYYCQQYDDHPYTFGQGTKLEIK
4 | 21 |  | 2000 | tmAb1 (antibody, V domains shown) VH: EVQLLESGGGLVQPGGSLRLSCAASGFNFRSYWMTWVRQAPGKGLEWVSSISSHSTYIYYADSVKGRFTISRDNSKNTLYLQMNSLRAEDTATYYCAREGWYDNWFDPWGQGTLVTVSS VL: EIVLTQSPGTLSLSPGERATLSCRASQNIRSPYLAWYQQKPGQAPRLLIYGVSSRAAGIPDRFSGSGSGTDFTLTISRLEPEDFAVYYCQQYDDHPYTFGQGTKLEIK
